Results from patent US20230106131A1.

How the values were obtained:
[1] = biological target: GST-MDM2 (human MDM2 residues 17-125) (human) (UniProt Q00987); test: ratio of KD values of FITC-labeled peptides
[2] = biological target: GST-MDM2 (human MDM2 residues 17-125) (human) (UniProt Q00987); test: direct binding of the FITC-labeled peptide to MDM2

Chain of GST-MDM2 (human MDM2 residues 17-125) (human) (Q00987 17-125): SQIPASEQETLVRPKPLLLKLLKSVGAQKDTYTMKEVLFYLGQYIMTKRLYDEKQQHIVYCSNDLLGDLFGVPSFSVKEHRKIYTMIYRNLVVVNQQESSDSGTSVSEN

- fold decrease of affinity against peptide 8 [1]: 8 fold
- Kd [2]: 114 nM
Substance: peptide 9, Ac-LTFhCHYWhCQLTS-miniPEG-K(FITC)-NH2, stapled with BBA-CPP9
